Laboratory results published in US20170327598A1 (published 2017).
Read-outs that look alike come from different tables or passages of the source.

Legend:
Experiment in all cases: sandwich ELISA, STAT protein coated at 0.5 µg/mL
[1] = target: T1, STAT 1 protein (UniProt P42224 1-750, limits assumed)
T1 sequence (looked up): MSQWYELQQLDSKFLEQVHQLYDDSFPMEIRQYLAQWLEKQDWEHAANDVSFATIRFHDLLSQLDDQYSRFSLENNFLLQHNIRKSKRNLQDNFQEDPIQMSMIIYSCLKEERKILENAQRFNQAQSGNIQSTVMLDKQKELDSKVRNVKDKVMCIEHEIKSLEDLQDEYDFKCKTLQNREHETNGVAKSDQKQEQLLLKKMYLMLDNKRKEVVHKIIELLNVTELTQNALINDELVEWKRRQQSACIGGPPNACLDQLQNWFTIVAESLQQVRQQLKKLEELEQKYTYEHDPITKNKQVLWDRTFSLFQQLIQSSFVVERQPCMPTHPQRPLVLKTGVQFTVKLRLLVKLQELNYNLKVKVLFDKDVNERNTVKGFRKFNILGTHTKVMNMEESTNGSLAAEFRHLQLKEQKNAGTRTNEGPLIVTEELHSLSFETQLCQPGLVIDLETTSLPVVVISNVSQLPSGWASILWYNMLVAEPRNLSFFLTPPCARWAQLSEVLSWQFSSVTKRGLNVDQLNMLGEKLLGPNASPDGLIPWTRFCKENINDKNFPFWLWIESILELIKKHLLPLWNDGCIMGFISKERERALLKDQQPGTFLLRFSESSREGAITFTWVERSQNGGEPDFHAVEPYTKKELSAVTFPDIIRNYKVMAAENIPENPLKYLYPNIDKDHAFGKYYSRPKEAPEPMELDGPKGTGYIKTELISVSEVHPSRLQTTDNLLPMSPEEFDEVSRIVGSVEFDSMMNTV

[2] = target: T1, STAT 1 protein; remark: listed apart in the source
[3] = target: T2, STAT 4 protein (UniProt Q14765 1-748, limits assumed)
T2 sequence (looked up): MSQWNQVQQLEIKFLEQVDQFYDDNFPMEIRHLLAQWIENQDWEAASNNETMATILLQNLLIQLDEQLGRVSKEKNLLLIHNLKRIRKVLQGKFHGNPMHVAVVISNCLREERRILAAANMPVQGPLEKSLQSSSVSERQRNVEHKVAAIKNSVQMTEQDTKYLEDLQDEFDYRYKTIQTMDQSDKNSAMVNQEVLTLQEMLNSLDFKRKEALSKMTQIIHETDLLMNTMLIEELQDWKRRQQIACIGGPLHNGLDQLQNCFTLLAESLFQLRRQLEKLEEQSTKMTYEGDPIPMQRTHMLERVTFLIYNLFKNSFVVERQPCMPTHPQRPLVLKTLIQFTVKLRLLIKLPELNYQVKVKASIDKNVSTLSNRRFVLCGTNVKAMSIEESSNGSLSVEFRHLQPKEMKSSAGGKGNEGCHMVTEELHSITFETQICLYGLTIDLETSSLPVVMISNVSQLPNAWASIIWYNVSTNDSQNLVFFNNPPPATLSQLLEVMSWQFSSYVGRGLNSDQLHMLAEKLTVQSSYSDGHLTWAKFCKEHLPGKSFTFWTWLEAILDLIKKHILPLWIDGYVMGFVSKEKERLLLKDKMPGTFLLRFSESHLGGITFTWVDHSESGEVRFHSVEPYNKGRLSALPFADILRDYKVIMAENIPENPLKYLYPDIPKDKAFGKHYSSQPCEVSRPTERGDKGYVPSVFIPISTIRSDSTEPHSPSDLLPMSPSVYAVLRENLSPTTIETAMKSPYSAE

[4] = target: T3, STAT 2 protein (UniProt P52630 1-851, limits assumed)
T3 sequence (P52630 whole entry): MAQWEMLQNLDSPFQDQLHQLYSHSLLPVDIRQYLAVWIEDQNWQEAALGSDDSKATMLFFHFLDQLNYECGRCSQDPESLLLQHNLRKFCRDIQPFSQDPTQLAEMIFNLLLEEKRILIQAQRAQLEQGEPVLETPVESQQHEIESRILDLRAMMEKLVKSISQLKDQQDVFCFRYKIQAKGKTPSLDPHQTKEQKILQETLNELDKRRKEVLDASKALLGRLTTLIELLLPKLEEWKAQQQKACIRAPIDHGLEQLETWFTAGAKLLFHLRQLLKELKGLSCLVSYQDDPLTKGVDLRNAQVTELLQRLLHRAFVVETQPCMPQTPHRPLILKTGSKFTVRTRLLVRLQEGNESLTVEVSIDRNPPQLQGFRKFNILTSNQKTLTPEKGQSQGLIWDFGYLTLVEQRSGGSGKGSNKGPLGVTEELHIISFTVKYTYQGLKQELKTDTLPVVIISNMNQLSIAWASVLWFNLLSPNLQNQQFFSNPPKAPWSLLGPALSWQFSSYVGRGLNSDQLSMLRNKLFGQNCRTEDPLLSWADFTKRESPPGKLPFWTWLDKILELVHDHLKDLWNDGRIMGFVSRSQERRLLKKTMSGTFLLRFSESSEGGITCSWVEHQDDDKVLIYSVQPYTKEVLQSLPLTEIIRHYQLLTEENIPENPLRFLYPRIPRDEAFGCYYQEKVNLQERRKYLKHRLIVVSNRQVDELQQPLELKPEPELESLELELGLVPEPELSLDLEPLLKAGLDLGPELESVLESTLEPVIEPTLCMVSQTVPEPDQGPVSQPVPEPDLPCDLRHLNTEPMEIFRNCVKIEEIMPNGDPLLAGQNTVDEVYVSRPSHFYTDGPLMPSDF

[5] = target: STAT 3 protein (UniProt P40763 1-770, limits assumed)
[6] = target: T1, STAT 1 protein; remark: listed apart in the source
[7] = target: T2, STAT 4 protein; remark: listed apart in the source
[8] = target: T3, STAT 2 protein; remark: listed apart in the source
[9] = target: T4, STAT 5a protein (UniProt P42229 1-794, limits assumed)
T4 sequence (looked up): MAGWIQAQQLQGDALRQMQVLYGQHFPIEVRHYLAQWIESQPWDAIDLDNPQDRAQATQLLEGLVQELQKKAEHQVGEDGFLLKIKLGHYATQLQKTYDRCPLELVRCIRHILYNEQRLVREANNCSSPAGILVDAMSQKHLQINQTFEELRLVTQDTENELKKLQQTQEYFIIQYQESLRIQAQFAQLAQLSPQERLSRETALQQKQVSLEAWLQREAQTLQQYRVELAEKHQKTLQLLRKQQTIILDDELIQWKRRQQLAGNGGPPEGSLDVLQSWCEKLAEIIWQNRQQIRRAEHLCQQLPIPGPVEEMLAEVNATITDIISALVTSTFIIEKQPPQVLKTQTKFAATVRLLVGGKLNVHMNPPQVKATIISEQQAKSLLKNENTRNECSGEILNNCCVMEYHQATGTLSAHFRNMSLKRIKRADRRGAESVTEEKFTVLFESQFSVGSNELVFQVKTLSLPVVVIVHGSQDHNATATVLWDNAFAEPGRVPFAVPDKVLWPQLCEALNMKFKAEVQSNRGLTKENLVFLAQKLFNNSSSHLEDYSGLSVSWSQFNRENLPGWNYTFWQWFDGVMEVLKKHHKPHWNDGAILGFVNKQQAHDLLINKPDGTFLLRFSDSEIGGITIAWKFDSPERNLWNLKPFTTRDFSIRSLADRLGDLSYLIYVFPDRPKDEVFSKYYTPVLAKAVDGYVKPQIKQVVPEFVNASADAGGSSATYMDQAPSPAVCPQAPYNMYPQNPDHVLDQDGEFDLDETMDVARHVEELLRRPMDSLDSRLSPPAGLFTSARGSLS

B1: anti-STAT3 VHH13 (SEQ ID NO:3) sdAb (VHH)
VHH: HVQLVESGGGSVQAGGSLRLSCAASGANGGRSCMGWFRQVPGKEREGVSGISTGGLITYYADSVKGRFTISQDNTKNTLYLQMNSLKPEDTAMYYCATSRFDCYRGSWFNRYMYNSWGQGTQVTVSS
Mean OD450 [1]: 1.94 OD450
Mean OD450 [2]: 0.026 OD450
Mean OD450 [3]: 0.083 OD450
Mean OD450 [4]: 0.023 OD450
Mean OD450 [5]: 0.431 OD450
Mean OD450 [6]: 0.159 OD450
Mean OD450 [7]: 0.833 OD450
Mean OD450 [8]: 0.186 OD450
Mean OD450 [9]: 0.821 OD450
